One substance from publication PMC2670981, “Divergence of Catalytic Mechanism within a Glycosidase Family Provides Insight into Evolution of Carbohydrate Metabolism by Human Gut Flora” (Chemistry & Biology, 2008) can be followed below.

The subject of the data set is O=[N+]([O-])c1ccc(O[C@H]2O[C@H](CO)[C@@H](O)[C@H](O)[C@H]2O)c([N+](=O)[O-])c1. The data set is described as follows: purified protein. Particulars: Ca2+.

On to “BtGH97a (Bacteroides thetaiotaomicron VPI-5482)”, for which the Michaelis constant (Km) – broadly, the substrate concentration at which the rate is half of its maximum – is 140 ± 10 µM; the kcat (in general, the maximal rate divided by the concentration of active sites) came out at 280 ± 7 s⁻¹; the specificity constant (kcat/Km) (as a rule, the turnover number divided by the Michaelis constant) came to 2e+06 M⁻¹ s⁻¹.
